Data taken from patent US20240116985A1 (published 2024).
Starred links: 1 amine or outer side, 2 acyl side, 3 side chain; linkers in the order of their positions; H or OH if unused. Positions of bridges follow the written chain, without caps; N, C: chain ends. Non-standard residues stand in square brackets, D forms with d. Primed or numbered codes have the meaning given here. (4CF3PhAc)GA = (S)-2-amino-3-(N-(carboxymethyl)-2-(4-(trifluoromethyl)phenyl)acetamido)propanoic acid, O=C(Cc1ccc(C(F)(F)F)cc1)N(CC(=O)[*:3])C[C@H](N[*:1])C(=O)[*:2]; (PfPhAc)GA = (S)-2-amino-3-(N-(carboxymethyl)-2-(perfluorophenyl)acetamido)propanoic acid, O=C(Cc1c(F)c(F)c(F)c(F)c1F)N(CC(=O)[*:3])C[C@H](N[*:1])C(=O)[*:2]; (4AcMePip)GA = (S)-2-amino-3-(N-(carboxymethyl)-1-methylpiperidine-4-carboxamido)propanoic acid, CN1CCC(C(=O)N(CC(=O)[*:3])C[C@H](N[*:1])C(=O)[*:2])CC1; (NdiMeButC)GAbu = (S)-2-amino-4-(N-(carboxymethyl)-4-(dimethylamino)butanamido)butanoic acid, CN(C)CCCC(=O)N(CC[C@H](N[*:1])C(=O)[*:2])CC(=O)[*:3]; PyrS2″ = (S)-3-amino-1-((pent-4-en-1-yloxy)carbonyl)pyrrolidine-3-carboxylic acid (stapling residue), C=CCCCOC(=O)N1CC[C@@](N[*:1])(C(=O)[*:2])C1; (NdiMeButC)GA = (S)-2-amino-3-(N-(carboxymethyl)-4-(dimethylamino)butanamido)propanoic acid, CN(C)CCCC(=O)N(CC(=O)[*:3])C[C@H](N[*:1])C(=O)[*:2]; B5(4) = 2,2-bis(4-pentenyl)glycine = 2-amino-2-(pent-4-en-1-yl)hept-6-enoic acid (stitching residue), C=CCCCC(CCCC=C)(N[*:1])C(=O)[*:2]; PyrS2 = (S)-3-amino-1-((pent-4-en-1-yloxy)carbonyl)pyrrolidine-3-carboxylic acid, C=CCCCOC(=O)N1CC[C@@](N[*:1])(C(=O)[*:2])C1; (Pic)GA = (S)-2-amino-3-(N-(carboxymethyl)picolinamido)propanoic acid, O=C(c1ccccn1)N(CC(=O)[*:3])C[C@H](N[*:1])C(=O)[*:2]; B5(22) = 2-amino-2-(pent-4-en-1-yl)hept-6-enoic acid (two alkene side chains), C=CCCCC(CCCC=C)(N[*:1])C(=O)[*:2]; B5(3) = 2,2-bis(4-pentenyl)glycine (stitching residue), C=CCCCC(CCCC=C)(N[*:1])C(=O)[*:2]; B5 = 2-amino-2-(pent-4-en-1-yl)hept-6-enoic acid, C=CCCCC(CCCC=C)(N[*:1])C(=O)[*:2]; Phe(3-COOH) = N[C@@H](Cc1cccc(C(=O)O)c1)C(=O)O; 2F3MeF = Cc1cccc(C[C@H](N[*:1])C(=O)[*:2])c1F; Phe(4-Cl) = N[C@@H](Cc1ccc(Cl)cc1)C(=O)O; Phe(4-NH2) = Nc1ccc(C[C@H](N)C(=O)O)cc1; Phe(2-F) = N[C@@H](Cc1ccccc1F)C(=O)O; Bta = N[C@@H](Cc1csc2ccccc12)C(=O)O; αAllylPro = C=CC[C@@]1(C(=O)O)CCCN1; tBuAla = CC(C)(C)C[C@H](N)C(=O)O; 2Thi = N[C@@H](Cc1cccs1)C(=O)O; 3Thi = N[C@@H](Cc1ccsc1)C(=O)O; S8 = C=CCCCCCC[C@](C)(N)C(=O)O; hSer = N[C@@H](CCO)C(=O)O

T1: full-length beta-Catenin (Uniprot ID P35222) (Homo sapiens (Human), UniProt P35222 1-781)
T1 construct: the AlphaScreen used a Histidine (Nickel Chelate) detection kit, so a His tag is likely but not described; also called B-Catenin; bCat
T1 sequence: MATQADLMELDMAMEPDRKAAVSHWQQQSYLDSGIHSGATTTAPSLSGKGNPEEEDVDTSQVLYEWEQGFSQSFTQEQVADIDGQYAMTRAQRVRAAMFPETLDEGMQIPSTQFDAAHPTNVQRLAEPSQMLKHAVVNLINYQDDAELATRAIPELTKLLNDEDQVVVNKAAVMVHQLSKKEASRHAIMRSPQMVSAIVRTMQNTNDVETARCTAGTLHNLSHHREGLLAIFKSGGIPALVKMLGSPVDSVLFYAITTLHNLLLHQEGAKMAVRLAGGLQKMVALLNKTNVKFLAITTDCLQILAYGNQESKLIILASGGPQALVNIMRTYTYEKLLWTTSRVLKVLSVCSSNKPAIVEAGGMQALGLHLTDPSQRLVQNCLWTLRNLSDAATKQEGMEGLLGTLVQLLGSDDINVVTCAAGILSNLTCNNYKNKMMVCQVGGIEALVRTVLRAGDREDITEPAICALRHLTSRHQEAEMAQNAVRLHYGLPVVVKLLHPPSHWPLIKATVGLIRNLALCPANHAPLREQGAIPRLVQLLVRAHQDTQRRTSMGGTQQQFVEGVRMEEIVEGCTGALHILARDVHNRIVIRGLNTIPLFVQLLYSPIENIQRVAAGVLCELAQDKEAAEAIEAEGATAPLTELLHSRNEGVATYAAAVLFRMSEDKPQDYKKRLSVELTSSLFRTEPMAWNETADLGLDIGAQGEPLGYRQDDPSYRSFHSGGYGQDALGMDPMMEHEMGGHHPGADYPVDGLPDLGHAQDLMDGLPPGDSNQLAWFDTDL

T2: B-cat-Halo (UniProt P35222 1-781)
T2 sequence (looked up): T1 sequence

B1: I-325 (peptide)
peptide: Ac-[αAllylPro]DA[B5(4)]DDAA[2Thi]V[S8]FWQ-NH2
modifications: staple 1-4, 4-11
notes: Ac-PL3-Asp-Ala-B5-Asp-Asp-Ala-Ala-2Thi-Val-S8-Phe-Trp-Gln-NH2; stapled peptide composition
B2: I-299 (peptide)
peptide: Ac-[αAllylPro]D[hSer][B5(4)]DDAAFQ[S8]F[Bta]A-NH2
modifications: staple 1-4, 4-11
notes: Ac-PL3-Asp-Hse-B5-Asp-Asp-Ala-Ala-Phe-Gln-S8-Phe-BztA-Ala-NH2; stapled peptide composition
B3: I-294 (peptide)
peptide: Ac-[αAllylPro]DA[B5(4)]DDAAFQ[S8]F[Bta]Q-NH2
modifications: staple 1-4, 4-11
notes: Ac-PL3-Asp-Ala-B5-Asp-Asp-Ala-Ala-Phe-Gln-S8-Phe-BztA-Gln-NH2; stapled peptide composition
B4: I-317 (peptide)
peptide: Ac-[αAllylPro]DA[B5]DDAA[Phe(2-F)]V[S8]FWQ-NH2
modifications: staple 1-4, 4-11
notes: Ac-PL3-Asp-Ala-B5-Asp-Asp-Ala-Ala-2FF-Val-S8-Phe-Trp-Gln-NH2; stapled peptide composition
B5: I-309 (peptide)
peptide: Ac-[αAllylPro]DA[B5]DDAA[Phe(4-Cl)]V[S8]FWQ-NH2
modifications: staple 1-4, 4-11; not fully specified; printed as Ac-PL3-Asp-Ala-B5-Asp-Asp-Ala-Ala-4C1F-Val-S8-Phe-Trp-Gln-NH2
notes: Ac-PL3-Asp-Ala-B5-Asp-Asp-Ala-Ala-4C1F-Val-S8-Phe-Trp-Gln-NH2; stapled peptide composition
B6: I-291 (peptide)
peptide: XDAXDDAAFVXFWA
modifications: not fully specified; N-terminal acetyl (Ac); C-terminal amide (NH2); PL3 at 1, B5 at 4, S8 at 11; stapled PL3-B5 and B5-S8
notes: Ac-PL3-Asp-Ala-B5-Asp-Asp-Ala-Ala-Phe-Val-S8-Phe-Trp-Ala-NH2; stapled peptide composition
B7: I-292 (peptide)
peptide: XDAXDDAAFVXFWA
modifications: not fully specified; N-terminal acetyl (Ac); C-terminal amide (NH2); PL3 at 1, B5 at 4, S8 at 11; stapled PL3-B5 and B5-S8
notes: as for B6
B8: I-316 (peptide)
peptide: Ac-[αAllylPro]DA[B5]DDAAFQ[S8]FWA-NH2
modifications: staple 1-4, 4-11
notes: Ac-PL3-Asp-Ala-B5-Asp-Asp-Ala-Ala-Phe-Gln-S8-Phe-Trp-Ala-NH2; stapled peptide composition
B9: I-324 (peptide)
peptide: Ac-[αAllylPro]DA[B5(4)]D[Phe(4-NH2)]AAFV[S8]FWQ-NH2
modifications: staple 1-4, 4-11
notes: Ac-PL3-Asp-Ala-B5-Asp-4AmPhe-Ala-Ala-Phe-Val-S8-Phe-Trp-Gln-NH2; stapled peptide composition

Molecular target: T1, full-length beta-Catenin (Uniprot ID …)
Assay: AlphaScreen competition vs biotin-TCF4(10-53) on full-length beta-catenin
Outline: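 Titrated peptide was preincubated 15 minutes at 20° C, then donor and acceptor beads were added for 60 minutes at 20° C protected from light. Reads were done in duplicate, and data were fitted to a 1:1 binding model with Hill slope; concentrations are final.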

First: B1
Second: B2
The EC50 of the first is 3.6-fold lower: 0.053 µM for the first, 0.189 µM for the second.

First: B3
Second: B4
The EC50 of the first is 11-fold lower: 0.04 µM for the first, 0.443 µM for the second. The first is the more potent here.

Compared with B5, B6 is 1.8-fold higher in EC50: 0.181 µM for the first, 0.327 µM for the second.

B7 and B8 are within 1.5-fold of each other in EC50: 0.187 µM for the first, 0.136 µM for the second.

Binder B9 has an EC50 of 1.75 µM.

Molecular target: T1, full-length beta-Catenin (Uniprot ID …)
Assay: FP competition vs 5FAM-TCF4(10-53) probe on full-length beta-catenin
Procedure: The plate was incubated protected from light for 60 minutes at 20° C. prior to read. Reads were performed on a CLARIOstar plate reader (BMG Labtech) in duplicate, and data were fitted to a 1:1 binding model with hill slope using an in-house script. All provided concentrations are final concentrations.

B1 and B2 are within 1.5-fold of each other in EC50: 1.31 µM for the first, 1.3 µM for the second.

First: B3
Second: B4
The EC50 of the first is 38-fold lower: 0.13 µM for the first, 5 µM for the second. The first is the more potent here.

B5 and B6 are within 1.5-fold of each other in EC50: 3.12 µM for the first, 3.13 µM for the second.

Going from B7 to B8, the EC50 rises from 1.87 µM to 3.98 µM (2.1-fold). The first is the more potent here.

Molecular target: T2, B-cat-Halo
Assay: cell-based or functional assay

Ac-[αAllylPro]D[tBuAla][B5(22)]D[(NdiMeButC)GAbu]AAFL[PyrS2][3Thi][Bta]Q-NH2 (staple 1-4, 4-11) [I-2243] and Ac-[αAllylPro]D[tBuAla][B5(22)]D[(4AcMePip)GA]AAFL[PyrS2][3Thi][Bta]Q-NH2 (staple 1-4, 4-11) [I-2235] cannot be ordered by “NanoBRET Abs IC50” value: 25.2 µM for the first, greater than 20 µM for the second.

Ac-[αAllylPro]D[tBuAla][B5(22)]D[(Pic)GA]AAFL[PyrS2][3Thi][Bta]Q-NH2 (staple 1-4, 4-11) [I-2237] and Ac-[αAllylPro]D[tBuAla][B5(22)]D[(PfPhAc)GA]AAFL[PyrS2][3Thi][Bta]Q-NH2 (staple 1-4, 4-11) [I-2241] are within 1.5-fold of each other in “NanoBRET Abs IC50” value: 24.3 µM for the first, 17.7 µM for the second.

Going from Ac-[αAllylPro]D[tBuAla][B5(3)]D[(NdiMeButC)GA]AAFL[PyrS2″][3Thi][Bta]Q-NH2 (staple 1-4, 4-11) [I-2233] to Ac-[αAllylPro]D[tBuAla][B5(22)]D[(4CF3PhAc)GA]AAFL[PyrS2][3Thi][Bta]Q-NH2 (staple 1-4, 4-11) [I-2236], the “NanoBRET Abs IC50” value falls from greater than 20 µM to 15.3 µM.

With Ac-[αAllylPro]D[tBuAla][B5(3)]D[Phe(3-COOH)]AAFL[PyrS2″][2F3MeF][Phe(4-Cl)]S-NH2 (staple 1-4, 4-11) [I-2222] the “NanoBRET Abs IC50” value was 11.7 µM.
